Measured values taken from patent US9833505.

Target: ZIKV Recombinant Envelope Protein (Meridian Life Sciences, Cat # R01635) (Zika virus)
Assay: ELISA on coated recombinant ZIKV E protein, dilutions of the mAb as positive control

monoclonal anti-Flavivirus group antigen clone D1-4G2-4-15, ascites (Cat# MAB10216, EMD Millipore) (antibody)
end point titre: 16000
